Test results published in the supplement of paper PMC10126150.
± gives the standard deviation of the averaged measurements.

tested on: ATP; experiment: switch fluorescence ratio, 500 uM ATP over buffer (Cy3 cluster intensity, sum of 5 cycles each) (fold (ratio)); higher = stronger signal-on switching upon ATP binding; sequences stand for … in TCGTCGGCAGCGTCAGATGTGTATAAGAGACAGTTTTTTTTTTTTTTTTTTTTTTTTT…TC; settings: aptamer strand: ATP DNA aptamer (quencher-CACCTGGGGGAGTATTGCGGAGGAAGG + anchor), 100 nM annealed; ATP concentration: 500 uM
Outline: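 Per cluster, summed Cy3 intensity from the target cycles was divided by that from the buffer cycles to give the fluorescence ratio, then averaged per switch-domain sequence. Clusters outside 100-1000 RFU were excluded. The Cy3-labelled switching-strand clusters, on a modified Illumina MiSeq flow-cell, were annealed to 100 nM quencher-labelled ATP aptamer and imaged in selection buffer, then after 15 min with 500 uM ATP at 22 °C, for five cycles with NaOH stripping and re-annealing between them.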
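Further: ATP exposure 15 min at 22 °C before imaging.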

| Sequence | switch fluorescence ratio |
| --- | --- |
| CTAAGCTTTG | 1 ± 0.035 |
| GAGGATGGGT | 0.933 ± 0.024 |
| TAGGATCCC | 0.981 ± 0.026 |
| GTTTTTAGGG | 1.02 ± 0.021 |
| ATGATGGATT | 1.008 ± 0.0031 |
| GCGGGGGCAT | 0.964 ± 0.012 |
| TGTGATGGGT | 0.996 ± 0.04 |
| TGGGGGGCCT | 0.991 ± 0.02 |
| AATCTGGCTG | 0.991 ± 0.023 |
| GGCTAGTGAC | 1 ± 0.03 |
| TGCTTGGAGG | 0.996 ± 0.014 |
| AGGCAAATGC | 1.25 ± 0.1 |
| ATCCGCGATT | 4.88 ± 1.1 |
| GTATGGCAGG | 1.01 ± 0.018 |
| ATTTAGTGGG | 0.993 ± 0.048 |
| TCGGAGGAAG | 1.02 ± 0.012 |
| ACGGTTGAAT | 0.9882 ± 0.0084 |
| GGTTCACGGT | 0.994 ± 0.026 |
| AGACGGCAAA | 1.03 ± 0.044 |
| GGGGCACCTC | 1.04 ± 0.015 |
| AGTAGAGCCT | 1.061 ± 0.0069 |
| CGAGTAAATG | 1.01 ± 0.021 |
| TCTATCGTTA | 1.04 ± 0.03 |

| Sequence | switch fluorescence ratio |
| --- | --- |
| TGATGTTACC | 1.06 ± 0.02 |
| AGGACGGAAT | 1.091 ± 0.0016 |
| GGCCGGGGAG | 0.981 ± 0.018 |
| GCCGTGTGAT | 0.986 ± 0.0083 |
| TGTCTCTGTC | 1.01 ± 0.021 |
| AATTGTAAAA | 0.988 ± 0.027 |
| CGAGTTACGG | 1.01 ± 0.019 |
| AGGGGGGCAC | 0.984 ± 0.025 |
| CTTGGATGGG | 0.9858 ± 0.0089 |
| CAGACCGGTT | 0.996 ± 0.035 |
| CTTTGGAACT | 1.06 ± 0.065 |
| ATGGGGGGCG | 1.02 ± 0.053 |
| CACGGGTGTT | 1.32 ± 0.12 |
| GTTGGGGTGT | 1.01 ± 0.013 |
| TGTTGGTATG | 0.976 ± 0.038 |
| TTGGGAGGGG | 1.04 ± 0.083 |
| TGCGCACGGG | 1.03 ± 0.019 |
| AAGGGGAGGT | 1.02 ± 0.041 |
| CACCTTACTC | 2.07 ± 0.11 |
| AAGATGTAAT | 1.01 ± 0.0079 |
| GAGTAGGAAG | 0.961 ± 0.05 |
| ACCGGGGCTA | 1.03 ± 0.031 |
| GCAGCAAGCG | 1.64 ± 0.028 |

| Sequence | switch fluorescence ratio |
| --- | --- |
| AGTGGGATAA | 1.11 ± 0.099 |
| GGGACACGA | 0.988 ± 0.024 |
| CGCAAAAAGT | 1.0219 ± 0.00086 |
| TTTTAGGCTG | 0.961 ± 0.027 |
| TCCAAGACGG | 1.02 ± 0.046 |
| AGTAGATTGG | 0.995 ± 0.028 |
| CGATATAGGA | 0.992 ± 0.011 |
| CGGGGTGTT | 0.994 ± 0.017 |
| GGTAGGAACC | 1.01 ± 0.021 |
| GTATGCGGAG | 0.996 ± 0.02 |
| ATATTCAGGG | 1.01 ± 0.031 |
| ATGGAAGGGC | 1.01 ± 0.011 |
| GATGTACCCC | 1.114 ± 0.0023 |
| GCGCCAGGCG | 0.998 ± 0.025 |
| GGGGAATTTG | 1.01 ± 0.041 |
| GAATGGGATC | 0.9698 ± 0.0059 |
| ATACGAGAAT | 1 ± 0.023 |
| AAACCTATGG | 0.986 ± 0.055 |
| TGTTGGCAGG | 1.02 ± 0.012 |
| TTGCGAGGGC | 1 ± 0.028 |
| AGATGCCAGG | 1.1 ± 0.031 |
| CACTATAACT | 1.071 ± 0.0068 |
| GGTCTATCGG | 0.965 ± 0.018 |

| Sequence | switch fluorescence ratio |
| --- | --- |
| ATTTTTTAAG | 0.9996 ± 0.0081 |
| ATAGTGTGTG | 1.004 ± 0.008 |
| TTTTATCTTG | 1.03 ± 0.017 |
| TCGGAAGACA | 1.01 ± 0.0069 |
| GGGATGCGG | 0.9609 ± 0.0064 |
| TTCTCGCCAA | 1.08 ± 0.022 |
| GTCGTGGCGA | 1.01 ± 0.02 |
| GTCACTAGTG | 1.028 ± 0.0026 |
| TTAAAGGGCT | 0.982 ± 0.044 |
| CAATGAAATC | 1.02 ± 0.027 |
| TCTAAAGGAT | 1.006 ± 0.004 |
| CGGCCCACGC | 1.04 ± 0.082 |
| CGGTAGGAAT | 1.018 ± 0.0077 |
| GGAACGTGAG | 1.011 ± 0.0011 |
| CAGATTTAGC | 0.9728 ± 0.0068 |
| TAGCGGGATT | 1.02 ± 0.033 |
| TCACGGGGGG | 1.08 ± 0.1 |
| GTGGGGGCTG | 0.9878 ± 0.0047 |
| GATGGATTAG | 0.982 ± 0.015 |
| GGTTAGATGG | 0.978 ± 0.043 |
| CCAACGGGCA | 1.08 ± 0.031 |
| AATGCCTGCG | 1.02 ± 0.034 |
| TTTGAGGGTT | 0.983 ± 0.026 |

| Sequence | switch fluorescence ratio |
| --- | --- |
| ATATGGATGG | 0.986 ± 0.025 |
| AAAGTGTACG | 0.999 ± 0.03 |
| AATTGGGGGA | 0.979 ± 0.031 |
| GTAAACGGTG | 0.979 ± 0.032 |
| GCTGTAGACT | 0.992 ± 0.038 |
| AATTGAGTGT | 1.01 ± 0.019 |
| GATTGAAGGG | 0.979 ± 0.032 |
| CTAGGCTCAA | 1.004 ± 0.004 |
| GGGGGAGCGA | 0.98 ± 0.059 |
| GTTGATGTAT | 0.987 ± 0.021 |
| GATTTGACG | 1.04 ± 0.056 |
| TTAAATACGT | 1.06 ± 0.049 |
| GGCCAAGGAT | 1.01 ± 0.028 |
| TCATGTTAAA | 0.98647 ± 0.0005 |
| AAGGAATTGT | 0.9729 ± 0.0085 |
| GTTTATTTCG | 0.987 ± 0.059 |
| ATATTGTTGT | 0.997 ± 0.057 |
| GGACAAGGGT | 1.02 ± 0.037 |
| TCGGCTTGGC | 1.03 ± 0.086 |
| AAGATTGTAA | 0.996 ± 0.03 |
| ATTGAGCGTG | 1.01 ± 0.015 |
| ATATGACGGT | 0.98 ± 0.029 |
| GTGATTTGGG | 1.01 ± 0.0076 |

| Sequence | switch fluorescence ratio |
| --- | --- |
| GTGTAATAGT | 0.996 ± 0.021 |
| GGCGTACTTG | 1.01 ± 0.012 |
| TTTGAGCAGA | 0.97 ± 0.02 |
| TTTAGACGGG | 0.965 ± 0.028 |
| TTTTCCGTTT | 1.02 ± 0.032 |
| ATCGCATTG | 1.24 ± 0.34 |
| AACTCCAGTA | 1.008 ± 0.005 |
| AGGTTTTATA | 0.9919 ± 0.0094 |
| TTACGGGCTA | 0.9975 ± 0.0081 |
| ATGATCTGCT | 0.946 ± 0.03 |
| GGCTTCACGA | 1.07 ± 0.014 |
| AGGGAGAGTC | 1.036 ± 0.0025 |
| TATGAATATT | 0.985 ± 0.027 |
| AATCGCTAGC | 1.02 ± 0.011 |
| AGTAATTTTG | 1.01 ± 0.065 |
| AGGCCATAAG | 0.9953 ± 0.0034 |
| ATGGGAGGGA | 1.01 ± 0.021 |
| ATGTGTGTAT | 1.12 ± 0.2 |
| TAGGGTAAGG | 0.97 ± 0.035 |
| CAGCAGAGGT | 1.02 ± 0.013 |
| CAGGGAGGAC | 1.01 ± 0.013 |
| AATTTTTTGT | 1.01 ± 0.033 |
| CGGGTTAGTC | 1.07 ± 0.027 |

| Sequence | switch fluorescence ratio |
| --- | --- |
| CCAGTGTTAG | 1.03 ± 0.013 |
| ATGCAGGTGT | 1.23 ± 0.014 |
| TGGATTTGCA | 1.03 ± 0.022 |
| CGTATTCTGA | 0.966 ± 0.064 |
| AAAAGCAGGG | 1 ± 0.014 |
| TTTGCTTTGG | 0.997 ± 0.019 |
| AGGGTCTACG | 0.997 ± 0.044 |
| GATAGAGAGG | 1 ± 0.044 |
| TAGGGTGCTT | 1.04 ± 0.036 |
| TAGTTTGGGG | 0.999 ± 0.032 |
| GGTGAATGGC | 1.03 ± 0.017 |
| TCGGTCCTGC | 1 ± 0.024 |
| CTAACGGGTA | 1 ± 0.018 |
| CTGGCTGGCA | 0.995 ± 0.01 |
| GACTTGTGTA | 0.994 ± 0.016 |
| TCGTGTGATG | 0.9686 ± 0.0049 |
| TTTTAACGTG | 0.979 ± 0.021 |
| AATTTAGGAT | 0.989 ± 0.027 |
| CAGGGGCGAC | 1.02 ± 0.049 |
